Test [1] deals with T1, recombinant human CD3 epsilon/delta heterodimer (human, UniProt P07766 23-126; P04234 22-105).
T1 construct: Recombinant protein in solution (200-50 nM) in the Octet assay; also called hCD3 E/D; human CD3E/D
As to the kind of experiment: Octet BLI, mAb on FAB2G sensor, hCD3 E/D 200-50 nM; R^2 0.99. A general note: Biolayer interferometry detects binding as a change in optical thickness at a sensor tip.

Test [2] has as its target T2, recombinant human CD3 epsilon/gamma heterodimer (human, UniProt P07766 23-126; P09693 23-116).
T2 construct: Recombinant protein in solution (200-50 nM) in the Octet assay; also called hCD3 E/G
As to the kind of experiment: Octet BLI, mAb on FAB2G sensor, hCD3 E/G 200-50 nM; R^2 0.99.

The target of the next test is recombinant CD3 proteins. In words: Octet (BLI), bispecific antibody against recombinant CD3 proteins.

The values that follow come from US20260167721A1 (ABLEXIS, published 2026).

T2 sequence (P07766 23-126, chain 1 of 2): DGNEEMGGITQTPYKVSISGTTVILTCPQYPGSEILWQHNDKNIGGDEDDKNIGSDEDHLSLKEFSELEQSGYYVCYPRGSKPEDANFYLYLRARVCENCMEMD
T2 sequence (P09693 23-116, chain 2 of 2): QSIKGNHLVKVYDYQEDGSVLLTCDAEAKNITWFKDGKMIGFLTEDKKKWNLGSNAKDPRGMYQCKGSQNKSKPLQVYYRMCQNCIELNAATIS
T1 sequence (P07766 23-126, stated change not applied, chain 1 of 2): as the sequence (P07766 23-126, chain 1 of 2) above
T1 sequence (P04234 22-105, stated change not applied, chain 2 of 2): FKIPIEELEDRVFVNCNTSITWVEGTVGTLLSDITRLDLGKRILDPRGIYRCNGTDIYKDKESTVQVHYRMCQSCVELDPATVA

B1: ABL-CD3-28 (antibody, V domains shown)
VH: QVQLQQSGPGLVKPSQTLSLTCAISGDSVSSNSVAWNWIRQSPSRGLEWLGRTYYRSKWYNECAGSVKSRITINPDTSKNQFSLQLNSVTPEDTAIYYCARERKWELFLDYWGQGTLVTVSS
VL: NFMLTQPHSVSESPGKTVTISCTRSSGSIASNYVQWYQQRPGSSPTTVIYEDNQRPSGVPDRFSGSIDSSSNSASLTISGLKTEDEADYYCQSFDSSNVVFGGGTKLTVL
notes: Chimeric hybridoma mAb: human V, CH1, upper hinge; mouse middle hinge, CH2, CH3
For orientation: Kd means the equilibrium constant for the complex coming apart. The term koff denotes a measure of how fast the partners let go of each other. A word on the kon: it is the rate constant with which the complex forms. For B1, in test [1], the Kd was determined as 7.88 nM, the Response stood at 0.77, the koff stood at 0.00133 s⁻¹ and the kon came to 168000 M⁻¹ s⁻¹. Besides, in test [2], the Kd came out at 5.6 nM, the Response came out at 0.77, the koff was 0.000798 s⁻¹ and the kon was found to be 143000 M⁻¹ s⁻¹.

B2: ABL-CD3-20 (antibody, V domains shown)
VH: EVQLVESGGGLVKPGGSLRLSCAASGLTFSTYSMNWVRQAPGKGLEWVSSISSSGSYVYYADSVKGRFTMSRDNAKNSLYLQMNSLRAEDTAVYYCARERRELLFDYWGQGTLVTVSS
VL: NFMLTQPHSVSESPGKTVTISCTRSSGSIASNYVQWYQQRPGSSPTSVIYEDNQRPSGVPDRFSGSIDSSSNSASLTISGLKTEDEADYYCQSYDRSNRVFGGGTKLTVL
notes: as for B1
Consider B2, for which, in test [1], the Kd stood at 10.5 nM, the Response came out at 0.51, the koff was 0.00229 s⁻¹ and the kon was 219000 M⁻¹ s⁻¹. In test [2], the Kd was 18.3 nM, the Response is 0.45, the koff stood at 0.00379 s⁻¹ and the on-rate (kon) was found to be 207000 M⁻¹ s⁻¹.

B3: ABL-CD3-53 (antibody, V domains shown)
VH: EVQLVESGGGLVKPGGSLRLSCAASGFTFSSYTMNWVRQAPGKGLEWVSSITTSSSYIYYADSVKGRFTISRDNAKNSLYLQMNSLRAEDTAVYYCARVTFDAFDIWGQGTMVTVSS
VL: NFMLTQPHSVSESPGKTVTISCTRSSGSIASNYVQWYQQRPGSSPTTVIYEDNQRPSGVPDRFSGSIDSSSNSASLTISGLKTEDEADYYCQSYDSSNRVFGGGTKLTVL
notes: as for B1
Consider B3, for which, in test [1], the Kd came out at 146 nM, the Response stood at 0.24, the koff was 0.0199 s⁻¹ and the kon was found to be 136000 M⁻¹ s⁻¹. Besides, in test [2], the Kd is 88.7 nM, the Response was 0.4, the koff came to 0.00714 s⁻¹ and the kon is 80500 M⁻¹ s⁻¹.

B4: ABL-CD3-55 (antibody, V domains shown)
VH: EVQLVESGGGLVKPGGSLRLSCAASGFTFSIYSMNWVRQAPGKGLEWVSSISSGSSYIYYADSVKGRFTISRDNAKSSLFLQMNSLRAEDTAVYYCAREKRELLFDYWGQGTLVTVSS
VL: NFMLTQPHSVSESPGKTVTISCTRSSGSIASNYVQWYQQRPGSSPTTVIYEDNQRPSGVPDRFSGSIDRSSNSASLTISGLKTEDEADYYCQSYDSSNRVFGGGTKLTVL
notes: as for B1
As for B4, in test [1], the Kd stood at 183 nM, the Response was 0.13, the koff was 0.069 s⁻¹ and the kon turned out to be 376000 M⁻¹ s⁻¹. Moreover, in test [2], the Kd stood at 141 nM, the Response stood at 0.08, the koff is 0.0894 s⁻¹ and the on-rate (kon) came out at 636000 M⁻¹ s⁻¹.

B5: ABL-CD3-54 (antibody, V domains shown)
VH: EVQLVESGGGLVKPGGSLRLSCAASGFTFSSYSMNWVRQAPGKGLEWVSSISRSSRYIFYADSVRGRFTISRDNAKNSLYLQMNSLRAEDTAVYYCAREKRELLFDYWGQGTLVTVSS
VL: NSMLTQPHSVSESPGKTVTISCTRSSGSIASYYVQWYQQRPGSSPTTVIYEDNQRPSGVPDRFSGSIDSSSNSASLTISGLKTEDEADYYCQSFDSSNRVFGGGTKLTVL
notes: as for B1
Consider B5, for which, in test [1], the Kd was determined as 17.6 nM, the Response was found to be 0.87, the koff turned out to be 0.00267 s⁻¹ and the kon was 152000 M⁻¹ s⁻¹. In addition, in test [2], the Kd turned out to be 19.3 nM, the Response turned out to be 0.87, the koff was 0.00258 s⁻¹ and the kon stood at 134000 M⁻¹ s⁻¹.

B6: ABL-CD3-10 (antibody, V domains shown)
VH: QVQLQQSGPGLVKPSQTLSLTCAISGDSVSCNSVAWNWIRQSPSRGLEWLGRTYYRSKWHNEYAVSVKSRINIKPDTSKNQVSLQLKSVTPEDTAVYYCARERKWELFLDYWGQGTLVTVSS
VL: NFMLTQPHSVSESPGKTVTISCTRSSGSIASNYVQWYQQRPGSSPTTMIYEDNQRPSGVPDRFSGSIDSSSNSASLTISGLKTEDEADYYCQSLDSSSVVFGGGTKLTVL
notes: as for B1
Regarding B6, in test [1], the Kd was 2.47 nM, the Response is 0.52, the koff turned out to be 0.00046 s⁻¹ and the kon amounted to 186000 M⁻¹ s⁻¹. In test [2], the Kd came out at 2.41 nM, the Response worked out at 0.46, the dissociation rate constant (koff) came to 0.00039 s⁻¹ and the kon stood at 162000 M⁻¹ s⁻¹.

B7: ABL-CD3-47 (antibody, V domains shown)
VH: EVQLVESGGGLVQPGGSLRLSCAASGFTFSRYSMNWVRQAPGKGLEWVSYISRSSTTIYYADSVKGRFTISRDNAKNSLYLQMNSLRDEDAAVYYCARERWELLYFDYWGQGTLVTVSS
VL: NFMLTQPHSVSESPGKTVTISCTRSSGSIASKYVQWYQQRPGSSPTTVIYEDNQRPSGVPDRFSGSIDSSSNSASLTISGLKTEDEADYYCQSYYSNNRVFGGGTKLTVL
notes: as for B1
For B7, in test [1], the Kd was found to be 16.9 nM, the Response came to 0.62, the koff came out at 0.00291 s⁻¹ and the kon came to 172000 M⁻¹ s⁻¹. In addition, in test [2], the Kd amounted to 36.2 nM, the Response is 0.43, the koff amounted to 0.00785 s⁻¹ and the kon came out at 217000 M⁻¹ s⁻¹.

B8: ABL-CD3-50 (antibody, V domains shown)
VH: QVQLQQSGPGLVKPSQTLSLTCAISGDSVSSNSVAWNWIRQSPSRGLEWLGRTYSRSKWYNDYAVSVKSRITINPDTSKNQFSLELNSVTPEDTAVYYCARERKWELFLDYWGQGTLVTVSS
VL: NFMLTQPHSVSESPGKTVTISCTRSSGSIASNYVQWYQQRPGISPTTVIYEDNQRPSGVPDRFSGSIDSSSNSASLTISGLKTEDEADYYCQSFDTSNVVFGGGTKLTVL
notes: as for B1
B8: in test [1], the Kd was determined as 21 nM, the Response stood at 0.57, the koff turned out to be 0.0047 s⁻¹ and the kon was found to be 224000 M⁻¹ s⁻¹. Besides, in test [2], the Kd was determined as 12.6 nM, the Response came to 0.6, the koff was 0.00247 s⁻¹ and the kon is 196000 M⁻¹ s⁻¹.

B9: CD3 × CD33-BspAb36 (bispecific antibody)
chain 1: not shown
chain 2: EVQLVQSGAEVKKPGSSVKVSCKASGYTITDSNIHWVRQAPGQSLEWIGYIYPYNGGTDYNQKFKNRATLTVDNPTNTAYMELSSLRSEDTAFYYCVNGNPWLAYWGQGTLVTVSSASTKGPSVFPLAPSSKSTSGGTAALGCLVKDYFPEPVTVSWNSGALTSGVHTFPAVLQSSGLYSLSSVVTVPSSSLGTQTYICNVNHKPSNTKVDKRVEPKSCDKTHTCPPCPAPEFEGGPSVFLFPPKPKDTLMISRTPEVTCVVVDVSHEDPEVKFNWYVDGVEVHNAKTKPREEQYNSTYRVVSVLTVLHQDWLNGKEYKCKVSNKALPASIEKTISKAKGQPREPQVCTLPPSREEMTKNQVSLSCAVKGFYPSDIAVEWESNGQPENNYKTTPPVLDSDGSFFLVSKLTVDKSRWQQGNVFSCSVMHEALHNRFTQKSLSLSPGK
chain 3: DIQLTQSPSTLSASVGDRVTITCRASESLDNYGIRFLTWFQQKPGKAPKLLMYAASNQGSGVPSRFSGSGSGTEFTLTISSLQPDDFATYYCQQTKEVPWSFGQGTKVEVKRTVAAPSVFIFPPSDEQLKSGTASVVCLLNNFYPREAKVQWKVDNALQSGNSQESVTEQDSKDSTYSLSSTLTLSKADYEKHKVYACEVTHQGLSSPVTKSFNRGEC
As to B9, in the test with recombinant CD3 proteins, the Kd was 205 nM, the Response is 0.42, the koff came to 0.00334 s⁻¹ and the kon was 16300 M⁻¹ s⁻¹.

B10: CD3 × CD33-BspAb38 (bispecific antibody)
chain 1: not shown
chain 2: EVQLVQSGAEVKKPGSSVKVSCKASGYTITDSNIHWVRQAPGQSLEWIGYIYPYNGGTDYNQKFKNRATLTVDNPTNTAYMELSSLRSEDTAFYYCVNGNPWLAYWGQGTLVTVSSASTKGPSVFPLAPSSKSTSGGTAALGCLVKDYFPEPVTVSWNSGALTSGVHTFPAVLQSSGLYSLSSVVTVPSSSLGTQTYICNVNHKPSNTKVDKRVEPKSCDKTHTCPPCPAPEFEGGPSVFLFPPKPKDTLMISRTPEVTCVVVDVSHEDPEVKFNWYVDGVEVHNAKTKPREEQYNSTYRVVSVLTVLHQDWLNGKEYKCKVSNKALPASIEKTISKAKGQPREPQVCTLPPSREEMTKNQVSLSCAVKGFYPSDIAVEWESNGQPENNYKTTPPVLDSDGSFFLVSKLTVDKSRWQQGNVFSCSVMHEALHNRFTQKSLSLSPGK
chain 3: DIQLTQSPSTLSASVGDRVTITCRASESLDNYGIRFLTWFQQKPGKAPKLLMYAASNQGSGVPSRFSGSGSGTEFTLTISSLQPDDFATYYCQQTKEVPWSFGQGTKVEVKRTVAAPSVFIFPPSDEQLKSGTASVVCLLNNFYPREAKVQWKVDNALQSGNSQESVTEQDSKDSTYSLSSTLTLSKADYEKHKVYACEVTHQGLSSPVTKSFNRGEC
As for B10, in the test with recombinant CD3 proteins, the Kd was 81 nM, the Response was determined as 0.28, the koff was found to be 0.0203 s⁻¹ and the kon came to 250000 M⁻¹ s⁻¹.

B11: ABL-CD3-56 (antibody, V domains shown)
VH: EVQLVESGGGLVKPGGSLRLSCVASGFTFSRYSMNWVRQAPGKGLEWVSSISSSSRYTYYADSLKGRFIMSRDNAKNSLFLQMNSLRAEDTAVYYCARNLYNALDYWGQGTLVTVSS
VL: FMLTQPHSVSESPGKTVTISCTRSSGSIASNYVQWYQQRPGSSPTTVIYEDNQRPSGVPDRFSGSIDSSSNSASLTISGLQTEDEADYYCQSYDSSNRVFGGGTKLTVL
notes: as for B1
Turning to B11, in test [1], the Kd is 3.96 nM, the Response was found to be 1.24, the koff amounted to 0.000522 s⁻¹ and the kon was 132000 M⁻¹ s⁻¹. Further, in test [2], the Kd was 0.94 nM, the Response was 1.3, the koff turned out to be 0.000102 s⁻¹ and the kon amounted to 109000 M⁻¹ s⁻¹.
